Measured values reported in patent publication US20150274845A1 (Hoffmann-La Roche, published 2015).

What was measured:
[1] = target: human CD3 T-Cell Co-Receptor (CD3) (human, UniProt P07766 23-207); assay: cell-based or functional assay
[2] = target: human Melanoma-associated Chondroitin Sulfate Proteoglycan (MCSP) (human, UniProt Q6UVK1 30-2322); assay: cell-based or functional assay
Chain of human Melanoma-associated Chondroitin Sulfate Proteoglycan (MCSP) (Q6UVK1 30-2322): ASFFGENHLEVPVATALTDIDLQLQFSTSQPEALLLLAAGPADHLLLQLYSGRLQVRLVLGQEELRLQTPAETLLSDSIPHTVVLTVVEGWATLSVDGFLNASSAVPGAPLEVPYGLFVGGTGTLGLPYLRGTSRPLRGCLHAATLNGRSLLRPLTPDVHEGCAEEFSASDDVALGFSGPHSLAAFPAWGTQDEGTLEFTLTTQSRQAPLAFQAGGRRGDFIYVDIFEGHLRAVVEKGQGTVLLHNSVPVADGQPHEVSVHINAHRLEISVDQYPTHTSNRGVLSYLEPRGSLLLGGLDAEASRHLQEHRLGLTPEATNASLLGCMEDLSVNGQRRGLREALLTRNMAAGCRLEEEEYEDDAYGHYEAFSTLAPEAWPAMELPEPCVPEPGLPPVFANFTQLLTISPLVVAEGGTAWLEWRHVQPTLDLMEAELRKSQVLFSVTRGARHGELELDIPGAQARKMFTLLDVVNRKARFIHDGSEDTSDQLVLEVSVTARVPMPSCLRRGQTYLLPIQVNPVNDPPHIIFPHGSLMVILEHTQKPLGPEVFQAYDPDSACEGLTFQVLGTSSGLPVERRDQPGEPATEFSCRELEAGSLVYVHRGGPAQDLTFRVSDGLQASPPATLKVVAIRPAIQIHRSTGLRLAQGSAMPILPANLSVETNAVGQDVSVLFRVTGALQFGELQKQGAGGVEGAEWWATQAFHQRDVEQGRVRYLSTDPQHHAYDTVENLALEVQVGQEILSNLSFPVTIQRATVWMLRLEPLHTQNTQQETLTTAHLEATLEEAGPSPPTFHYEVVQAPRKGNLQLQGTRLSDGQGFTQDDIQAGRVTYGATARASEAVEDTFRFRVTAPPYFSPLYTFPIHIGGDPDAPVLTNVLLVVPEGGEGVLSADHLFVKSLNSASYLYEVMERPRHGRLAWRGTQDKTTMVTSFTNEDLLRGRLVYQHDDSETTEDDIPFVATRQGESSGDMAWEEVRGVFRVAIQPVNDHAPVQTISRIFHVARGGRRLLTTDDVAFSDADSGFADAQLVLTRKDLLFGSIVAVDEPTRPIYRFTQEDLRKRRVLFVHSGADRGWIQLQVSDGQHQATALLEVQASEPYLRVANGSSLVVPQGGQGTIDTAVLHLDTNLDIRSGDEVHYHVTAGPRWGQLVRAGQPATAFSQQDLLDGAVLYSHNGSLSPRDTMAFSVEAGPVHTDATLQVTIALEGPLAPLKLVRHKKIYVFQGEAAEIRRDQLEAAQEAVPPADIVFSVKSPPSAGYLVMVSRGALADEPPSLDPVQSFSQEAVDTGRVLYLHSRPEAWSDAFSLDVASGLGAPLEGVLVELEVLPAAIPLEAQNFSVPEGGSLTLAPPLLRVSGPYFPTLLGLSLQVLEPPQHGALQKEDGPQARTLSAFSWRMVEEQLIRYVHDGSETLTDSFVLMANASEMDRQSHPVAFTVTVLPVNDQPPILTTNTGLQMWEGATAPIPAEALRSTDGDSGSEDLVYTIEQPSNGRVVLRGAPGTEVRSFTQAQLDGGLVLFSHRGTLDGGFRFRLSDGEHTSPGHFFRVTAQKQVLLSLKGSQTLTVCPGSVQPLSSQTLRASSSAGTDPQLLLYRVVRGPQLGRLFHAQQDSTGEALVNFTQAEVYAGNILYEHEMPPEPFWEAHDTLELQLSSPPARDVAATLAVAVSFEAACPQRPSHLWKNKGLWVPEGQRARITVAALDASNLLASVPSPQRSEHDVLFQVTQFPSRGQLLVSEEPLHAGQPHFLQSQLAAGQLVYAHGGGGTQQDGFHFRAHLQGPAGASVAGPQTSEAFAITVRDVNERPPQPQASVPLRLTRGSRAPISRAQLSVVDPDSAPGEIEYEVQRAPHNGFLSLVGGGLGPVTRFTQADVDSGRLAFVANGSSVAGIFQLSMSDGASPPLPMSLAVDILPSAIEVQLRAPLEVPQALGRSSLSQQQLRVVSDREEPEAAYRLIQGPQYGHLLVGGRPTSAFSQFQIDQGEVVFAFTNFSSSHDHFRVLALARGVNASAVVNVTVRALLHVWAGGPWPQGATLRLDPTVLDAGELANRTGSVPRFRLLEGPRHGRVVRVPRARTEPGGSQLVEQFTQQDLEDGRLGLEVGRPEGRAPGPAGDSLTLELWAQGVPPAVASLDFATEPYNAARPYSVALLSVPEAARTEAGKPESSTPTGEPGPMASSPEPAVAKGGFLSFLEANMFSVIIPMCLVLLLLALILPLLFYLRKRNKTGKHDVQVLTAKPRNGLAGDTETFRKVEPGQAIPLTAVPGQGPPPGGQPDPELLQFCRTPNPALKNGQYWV

Chain of human CD3 T-Cell Co-Receptor (CD3) (P07766 23-207): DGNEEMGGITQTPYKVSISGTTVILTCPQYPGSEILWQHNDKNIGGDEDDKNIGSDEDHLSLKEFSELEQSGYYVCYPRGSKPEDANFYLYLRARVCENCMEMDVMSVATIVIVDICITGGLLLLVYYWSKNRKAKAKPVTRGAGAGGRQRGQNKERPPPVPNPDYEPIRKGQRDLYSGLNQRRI

B1: (scFv)2 (antiMCSP/anti huCD3e) (bispecific antibody)
scFv: DIVLTQSPSSLSASLGDRVTISCSASQGIRNYLNWYQQRPDGTVKLLIYYTSSLHSGVPSRFSGSGSGTDYSLTISNLEPEDIATYYCQQYSKLPWTFGGGTKLEIKGGGGSGGGGSGGGGSEVQLQESGPGLVKPSQSLSLTCSVTGYSITSGYYWNWIRQFPGNKLEWMGYITYDGSNNYNPSLKNRISITRDTSKNQFFLKLNSVTTEDTATYYCADFDYWGQGTTLTVSSGGGGSEVQLVESGGGLVQPGGSLRLSCAASGYSFTGYTMNWVRQAPGKGLEWVALINPYKGVSTYNQKFKDRFTISVDKSKNTAYLQMNSLRAEDTAVYYCARSGYYGDSDWYFDVWGQGTLVTVSSVEGGSGGSGGSGGSGGVDDIQMTQSPSSLSASVGDRVTITCRASQDIRNYLNWYQQKPGKAPKLLIYYTSRLESGVPSRFSGSGSGTDYTLTISSLQPEDFATYYCQQGNTLPWTFGQGTKVEIKHHHHHH
- EC50 of killing (LDH release) of MV-3 tumor cells, human PBMCs, E:T 10:1, 24 hours [1]: 0.057 nM
- EC50 of killing (LDH release) of MV-3 tumor cells, human PBMCs, E:T 10:1, 24 hours [2]: 0.057 nM

B2: hu Fab (MCSP)-Crossfab (CD3) (bispecific antibody)
chain 1: EVQLQESGPGLVKPSQSLSLTCSVTGYSITSGYYWNWIRQFPGNKLEWMGYITYDGSNNYNPSLKNRISITRDTSKNQFFLKLNSVTTEDTATYYCADFDYWGQGTTLTVSSASTKGPSVFPLAPSSKSTSGGTAALGCLVKDYFPEPVTVSWNSGALTSGVHTFPAVLQSSGLYSLSSVVTVPSSSLGTQTYICNVNHKPSNTKVDKKVEPKSCDGGGGSGGGGSDIQMTQSPSSLSASVGDRVTITCRASQDIRNYLNWYQQKPGKAPKLLIYYTSRLESGVPSRFSGSGSGTDYTLTISSLQPEDFATYYCQQGNTLPWTFGQGTKVEIKSSASTKGPSVFPLAPSSKSTSGGTAALGCLVKDYFPEPVTVSWNSGALTSGVHTFPAVLQSSGLYSLSSVVTVPSSSLGTQTYICNVNHKPSNTKVDKKVEPKSC
light: DIVLTQSPSSLSASLGDRVTISCSASQGIRNYLNWYQQRPDGTVKLLIYYTSSLHSGVPSRFSGSGSGTDYSLTISNLEPEDIATYYCQQYSKLPWTFGGGTKLEIKRTVAAPSVFIFPPSDEQLKSGTASVVCLLNNFYPREAKVQWKVDNALQSGNSQESVTEQDSKDSTYSLSSTLTLSKADYEKHKVYACEVTHQGLSSPVTKSFNRGEC
chain 2: EVQLVESGGGLVQPGGSLRLSCAASGYSFTGYTMNWVRQAPGKGLEWVALINPYKGVSTYNQKFKDRFTISVDKSKNTAYLQMNSLRAEDTAVYYCARSGYYGDSDWYFDVWGQGTLVTVSSASVAAPSVFIFPPSDEQLKSGTASVVCLLNNFYPREAKVQWKVDNALQSGNSQESVTEQDSKDSTYSLSSTLTLSKADYEKHKVYACEVTHQGLSSPVTKSFNRGEC
- EC50 of killing (LDH release) of MV-3 tumor cells, human PBMCs, E:T 10:1, 24 hours [1]: 0.0254 nM
- EC50 of killing (LDH release) of MV-3 tumor cells, human PBMCs, E:T 10:1, 24 hours [2]: 0.0254 nM
